Experimental data reported in patent publication US20190292270A1 (UNIVERSITY OF TOKYO, published 2019).

Target: T1, mouse TLR9 (mouse, UniProt Q9EQU3 26-1032)
T1 construct: Endogenous TLR9 of mouse spleen cDCs (staining) and of BM-cDC lysate (immunoprecipitation); also called endogenous TLR9
T1 sequence: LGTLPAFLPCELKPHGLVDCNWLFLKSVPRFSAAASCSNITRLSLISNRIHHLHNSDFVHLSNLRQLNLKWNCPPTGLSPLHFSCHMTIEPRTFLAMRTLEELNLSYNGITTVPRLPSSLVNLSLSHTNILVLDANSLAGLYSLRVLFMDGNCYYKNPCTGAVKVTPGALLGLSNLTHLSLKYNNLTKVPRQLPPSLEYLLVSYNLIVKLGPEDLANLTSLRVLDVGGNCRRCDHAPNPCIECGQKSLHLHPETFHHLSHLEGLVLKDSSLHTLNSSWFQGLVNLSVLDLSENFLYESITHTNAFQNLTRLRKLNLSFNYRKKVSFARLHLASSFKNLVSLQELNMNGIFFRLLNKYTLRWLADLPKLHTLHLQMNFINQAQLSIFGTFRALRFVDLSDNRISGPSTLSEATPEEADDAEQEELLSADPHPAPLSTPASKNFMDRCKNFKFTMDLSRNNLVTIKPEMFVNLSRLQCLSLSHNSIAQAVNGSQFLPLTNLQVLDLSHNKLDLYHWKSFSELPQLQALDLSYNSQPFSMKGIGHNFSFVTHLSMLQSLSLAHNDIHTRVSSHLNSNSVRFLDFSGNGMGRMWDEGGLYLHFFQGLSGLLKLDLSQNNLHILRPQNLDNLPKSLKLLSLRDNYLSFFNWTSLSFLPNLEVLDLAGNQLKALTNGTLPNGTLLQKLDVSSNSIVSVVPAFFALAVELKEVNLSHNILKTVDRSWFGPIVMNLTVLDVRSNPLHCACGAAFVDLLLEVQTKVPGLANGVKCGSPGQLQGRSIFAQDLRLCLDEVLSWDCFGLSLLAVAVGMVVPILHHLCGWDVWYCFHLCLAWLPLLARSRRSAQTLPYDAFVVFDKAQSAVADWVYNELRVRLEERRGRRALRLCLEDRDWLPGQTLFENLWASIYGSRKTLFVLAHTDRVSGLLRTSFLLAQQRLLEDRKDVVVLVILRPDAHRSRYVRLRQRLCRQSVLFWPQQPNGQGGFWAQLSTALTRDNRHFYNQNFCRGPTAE
Test: immunoprecipitation from BM-cDC lysate, Western blot; also staining of spleen cDCs
Description: The protein expression of TLR9 was analyzed by Western blot. BM-cDCs were washed twice with 1×PBS and recovered. The recovered cells were lysed for 30 minutes in an ice-cold buffer for lysis (1% Triton X 100, 20 mM Tris-HCl (pH 7.4), 150 mM NaCl, 1 mM CaCl₂, 1 mM MgCl₂, 10% glycerol, 1 mM DTT and Complete protease Inhibitor Cocktail (F. Hoffmann-La Roche, Ltd.)) and centrifuged at a high speed, followed by the recovery of the supernatant of the cell lysate.
The recovered cell lysate was added to N-hydroxy succinimide-activated Sepharose 4FF beads bound with the anti-TLR9 monoclonal antibody (NaR9), and the mixture was stirred at 4° C. for 2 hours. TLR9 was immunoprecipitated by this step. The beads thus stirred were washed three times with an ice-cold buffer for washing (0.1% Triton X 100, 20 mM Tris/HCl (pH 7.4), 150 mM NaCl, 1 mM CaCl₂), 1 mM MgCl2, 0.1% glycerol, and 1 mM DTT). To the washed beads, an SDS sample buffer (125 mM Tris/HCl [pH 6.8], 20% glycerol, 4% SDS, 10% 2-ME, and 0.005% bromophenol blue) was added, and the mixture was heated at 96° C. for 5 minutes for protein denaturation treatment. The sample thus prepared was subjected to polyacrylamide electrophoresis, and the protein was transferred to a PVDF membrane and Western-blotted. […]

binding result: binds
B1: anti-mouse TLR9 monoclonal antibody NaR9 (antibody, IgG2a, V domains shown)
VH: QVHLQQSGPDLVKPGASVQMSCKTSDYTFTNYYLHWVRQRPGQGLEWIGWIYPGDGSTKYNDQFRGRTTLTADKSSSTAYMFLSSLTSEDSAIYFCAKSWDYFDYWGQGTTLTVSS
VL: DIQMTQSPSSLSASLGGKVTITCKASQDIDNYIAWYQHKPGKGPRLLIHYASTLQPGIPSRFSGSGSGRDYSLSISNLEPEDIATYYCLQYDDLYTFGGGTKLEIK
notes: Mouse hybridoma antibody, subclass IgG2a/kappa, purified from ascitic fluid; They may therefore cover only the variable regions, possibly with a leader; also called NaR9 antibody; anti-TLR9 monoclonal antibody (NaR9)
